Among the data in the Immune Epitope Database (IEDB) are Kd values, retold here.

Experiment [1] has as its target HLA-B*40:01. Description: IEDB peptide-MHC binding, purified MHC/competitive/radioactivity; filed as Kd, often an IC50 or EC50 that approximates it; ≥ and ≤ were set here for values at or beyond the usual limits of such assays.
The target in experiment [2] is HLA-B*44:02. Described as above.
Another experiment addresses HLA-B*44:03. The description is as above.
The target in the next experiment is HLA-A*32:01. Described as above.
The target in experiment [3] is HLA-A*01:01. Description: IEDB peptide-MHC binding, purified MHC/direct/fluorescence; filed as Kd, often an IC50 or EC50 that approximates it; ≥ and ≤ were set here for values at or beyond the usual limits of such assays. To be noted: source organism: Coxiella burnetii.
The target in the next experiment is HLA-A*02:01. The description is as above. Conditions: source organism: Coxiella burnetii.
Another experiment has as its target HLA-A*03:01. The experiment is described as above. Conditions: source organism: Coxiella burnetii.
The target of another experiment is HLA-A*11:01. The experiment is described as above. Conditions: source organism: Coxiella burnetii.
For experiment [4], the target named is HLA-A*26:01. The experiment is described as above. Conditions: source organism: Coxiella burnetii.
A further experiment deals with HLA-A*31:01. Described as above. To be noted: source organism: Coxiella burnetii.
Another experiment deals with HLA-A*69:01. The experiment is described as above. To be noted: source organism: Coxiella burnetii.
The target of experiment [5] is HLA-B*07:02. The experiment is described as above. To be noted: source organism: Coxiella burnetii.
A further experiment concerns the target HLA-B*08:01. The experiment is described as above. To be noted: source organism: Coxiella burnetii.
A further experiment deals with HLA-B*15:01. The description is as above. To be noted: source organism: Coxiella burnetii.
The target in a further experiment is HLA-B*27:05. Described as above. Conditions: source organism: Coxiella burnetii.
The target in experiment [6] is HLA-B*40:01. Described as above. To be noted: source organism: Coxiella burnetii.
For experiment [7], the target named is HLA-B*44:02. Described as above. Conditions: source organism: Coxiella burnetii.
A further experiment concerns the target HLA-B*58:01. The experiment is described as above. Conditions: source organism: Coxiella burnetii.
Experiment [8] addresses HLA-A*01:01. Description: IEDB peptide-MHC binding, purified MHC/competitive/radioactivity; filed as Kd, often an IC50 or EC50 that approximates it; ≥ and ≤ were set here for values at or beyond the usual limits of such assays.
Experiment [9] concerns the target HLA-A*26:01. Described as above.
The target of a further experiment is HLA-A*29:02. The experiment is described as above.
The target in another experiment is HLA-A*30:01. The description is as above.
The target of a further experiment is HLA-A*30:02. The experiment is described as above.
In the next experiment the target is HLA-B*35:01. The experiment is described as above.
The target of another experiment is HLA-B*18:01. Description: IEDB peptide-MHC binding, purified MHC/direct/fluorescence; filed as Kd, often an IC50 or EC50 that approximates it; ≥ and ≤ were set here for values at or beyond the usual limits of such assays. To be noted: source organism: Bacillus cereus H3081.97.
Another experiment has as its target HLA-A*02:06. Description: IEDB peptide-MHC binding, purified MHC/competitive/radioactivity; filed as Kd, often an IC50 or EC50 that approximates it; ≥ and ≤ were set here for values at or beyond the usual limits of such assays.
In experiment [10] the target is HLA-B*07:02. The description is as above.
Another experiment deals with HLA-B*51:01. The experiment is described as above.
A further experiment has as its target HLA-B*53:01. The experiment is described as above. To be noted: source organism: Dengue virus 2 Jamaica/1409/1983.
The target of the next experiment is HLA-A*02:02. Described as above. Conditions: source organism: Vaccinia virus WR.
In the next experiment the target is HLA-A*02:03. The description is as above. Conditions: source organism: Vaccinia virus WR.
Where [11] appears, read: source organism: Dengue virus 2 Jamaica/1409/1983.
[12] abbreviates: source organism: Dengue virus 3 Martinique/1243/1999.
[13] abbreviates: source organism: Mammarenavirus guanaritoense.
The mark [14] stands for this setting: source organism: Dengue virus 4 Philippines/H241/1956.
Setting [15] is: source organism: Dengue virus 2 Peru/IQT2913/1996.
Setting [16] is: source organism: Dengue virus 1 Singapore/S275/1990.
The mark [17] stands for this setting: source organism: Vaccinia virus WR.
Setting [18] is: source organism: Dengue virus 1 Brazil/97-11/1997.
The mark [19] stands for this setting: source organism: Mammarenavirus brazilense.
The mark [20] stands for this setting: source organism: Lymphocytic choriomeningitis virus (strain WE).

With AEISGSSPI, the dissociation constant (Kd) with HLA-B*40:01 [1] (setting [11]) stood at 0.00066 µM; with HLA-B*44:02 [2] (setting [11]), 0.0146 µM; with HLA-B*44:03 (setting [11]), 0.0255 µM.

Turning to AEMEEALKGL, the Kd with HLA-B*40:01 [1] (setting [12]) amounted to 0.0155 µM; with HLA-B*44:02 [2] (setting [12]), 0.026 µM; with HLA-B*44:03 (setting [12]), 0.0562 µM.

With AETQNSSFI, the figures for the Kd in the experiment with HLA-B*40:01 [1] (setting [12]), in the experiment with HLA-B*44:02 [2] (setting [12]) and with HLA-B*44:03 (setting [12]) were 0.142 µM, 0.00267 µM and 0.123 µM, respectively.

As to DEDCAHWKEA, the Kd in the experiment with HLA-A*32:01 (setting [11]) was ≥ 69.9 µM.

As to EEIAVQNWL, the dissociation constant (Kd) with HLA-B*40:01 [1] (setting [11]) amounted to 0.0148 µM; with HLA-B*44:02 [2] (setting [11]) it was 0.00691 µM; with HLA-B*44:03 (setting [11]), 0.0106 µM.

On to EEMPLVWDL, for which the equilibrium dissociation constant (Kd) in the experiment with HLA-A*01:01 [3], in the experiment with HLA-A*02:01, with HLA-A*03:01, in the experiment with HLA-A*11:01, in the experiment with HLA-A*26:01 [4] and in the experiment with HLA-A*31:01 was ≥ 20 µM throughout. Further, the dissociation constant Kd is ≥ 20 µM in the experiment with HLA-A*69:01; ≥ 20 µM with HLA-B*07:02 [5]; ≥ 20 µM with HLA-B*08:01; ≥ 20 µM in the experiment with HLA-B*15:01; ≥ 20 µM in the experiment with HLA-B*27:05; 0.0189 µM with HLA-B*40:01 [6]. In addition, the dissociation constant (Kd) with HLA-B*44:02 [7] is 9.33 µM; with HLA-B*58:01, ≥ 20 µM.

In the case of EEVQVLALE, the Kd with HLA-B*44:03 (setting [11]) amounted to 10.5 µM.

For the sequence ESALNISGY, the Kd with HLA-A*01:01 [8] (setting [13]) is 0.0374 µM; in the experiment with HLA-A*26:01 [9] (setting [13]), 0.118 µM; with HLA-A*29:02 (setting [13]) it was ≥ 35.4 µM; with HLA-A*30:01 (setting [13]), ≥ 67.3 µM; in the experiment with HLA-A*30:02 (setting [13]), 0.733 µM; with HLA-A*32:01 (setting [13]), ≥ 77.8 µM.

Turning to FEEVMRGKFG, in the experiment with HLA-B*40:01 [1] (setting [12]), the dissociation constant (Kd) came out at 1.34 µM.

For FIRSTMPLVM, the Kd in the experiment with HLA-B*35:01 (setting [14]) was 2.96 µM.

In the case of FPVQFFIVF, the dissociation constant (Kd) with HLA-B*18:01 was ≥ 20 µM.

With FTLTVAWRTA, the equilibrium dissociation constant (Kd) in the experiment with HLA-A*02:06 (setting [12]) is 0.376 µM; with HLA-A*32:01 (setting [12]) it was 9.4 µM.

With GEGLHKLGY, the Kd with HLA-B*44:02 [2] (setting [11]) was 0.12 µM; with HLA-B*44:03 (setting [11]) it was 0.28 µM.

On to GESSPNPTV, for which the figures for the Kd with HLA-B*40:01 [1] (setting [15]) and in the experiment with HLA-B*44:02 [2] (setting [15]) were 0.0156 µM and 0.321 µM, respectively.

For GEVDSFSLGL, the Kd came out at 0.00213 µM in the experiment with HLA-B*40:01 [1] (setting [16]) and 0.158 µM in the experiment with HLA-B*44:03 (setting [16]).

Take GTFHTMWHVT: in the experiment with HLA-A*32:01 (setting [11]), the Kd amounted to 13.4 µM.

For HPGFTIMAAI, the figures for the Kd with HLA-B*07:02 [10] (setting [11]), with HLA-B*51:01 (setting [11]) and with HLA-B*53:01 were 0.0295 µM, 5.71 µM and 0.0665 µM, respectively.

On to IGVIITWIGM, for which, in the experiment with HLA-A*32:01 (setting [11]), the Kd was ≥ 59 µM.

Regarding IIWKGIYTY, the dissociation constant Kd with HLA-A*32:01 (setting [17]) was determined as 0.00328 µM.

Turning to IVYGRSNAI, the Kd turned out to be 0.0149 µM with HLA-A*02:02, 0.0158 µM with HLA-A*02:03, 0.0302 µM with HLA-A*02:06 (setting [17]) and 0.00315 µM with HLA-A*32:01 (setting [17]).

For the sequence KEISNMLSII, the Kd was 0.0522 µM with HLA-B*40:01 [1] (setting [12]), 0.0294 µM in the experiment with HLA-B*44:02 [2] (setting [12]) and 0.267 µM with HLA-B*44:03 (setting [12]).

KELEGILLP: in the experiment with HLA-B*44:03 (source organism: Homo sapiens), the Kd came out at 0.356 µM.

In the case of KPTLDFELI, the values for the Kd in the experiment with HLA-B*51:01 (setting [11]) and with HLA-B*53:01 were ≥ 31.2 µM and 0.279 µM, respectively.

Take KTKRILPSI: the dissociation constant (Kd) stood at 0.00675 µM with HLA-A*30:01 (setting [14]) and 0.125 µM with HLA-A*32:01 (setting [14]).

For the sequence LEKHGAERL, the equilibrium dissociation constant (Kd) with HLA-B*40:01 [1] (setting [18]) turned out to be 0.0237 µM.

Turning to LINERDYSRY, the Kd in the experiment with HLA-A*01:01 [8] (setting [19]) was 1.03 µM; with HLA-A*26:01 [9] (setting [19]), 1.93 µM; with HLA-A*29:02 (setting [19]) it was 16.5 µM; in the experiment with HLA-A*30:01 (setting [19]), ≥ 70.4 µM; in the experiment with HLA-A*30:02 (setting [19]) it was 0.633 µM; with HLA-A*32:01 (setting [19]) it was ≥ 69.9 µM.

In the case of LINLTTIAY, the Kd with HLA-A*01:01 [8] (setting [19]) stood at 0.576 µM; with HLA-A*26:01 [9] (setting [19]) it was 12.2 µM; in the experiment with HLA-A*29:02 (setting [19]), 0.345 µM; in the experiment with HLA-A*30:01 (setting [19]), 9.39 µM; with HLA-A*30:02 (setting [19]), 1.45 µM; in the experiment with HLA-A*32:01 (setting [19]), 8.97 µM.

Take LLLVTHYAI: the dissociation constant (Kd) with HLA-A*32:01 (source organism: Dengue virus 3 Singapore/8120/1995) was determined as 0.0416 µM.

For LPVWLAYRVA, the Kd with HLA-B*35:01 (setting [11]) stood at 0.311 µM; in the experiment with HLA-B*51:01 (setting [11]), 4.99 µM.

As to LSNGASLTI, in the experiment with HLA-A*32:01 (setting [17]), the Kd was 0.0735 µM.

For the sequence MEAQLIRQM, the Kd with HLA-B*40:01 [1] (setting [11]) turned out to be 0.802 µM; with HLA-B*44:02 [2] (setting [11]), 0.0112 µM; with HLA-B*44:03 (setting [11]) it was 0.119 µM.

As for MPIRYQTTAV, the dissociation constant Kd was found to be 0.0113 µM with HLA-B*07:02 [10] (setting [18]), 0.048 µM with HLA-B*35:01 (setting [18]) and 0.347 µM with HLA-B*51:01 (setting [18]).

Consider MTKEASREY, for which the Kd in the experiment with HLA-A*01:01 [8] (setting [20]) is 3.01 µM; with HLA-A*26:01 [9] (setting [20]), 0.0177 µM; with HLA-A*29:02 (setting [20]), 0.616 µM; in the experiment with HLA-A*30:01 (setting [20]), 0.108 µM; with HLA-A*30:02 (setting [20]) it was 0.0675 µM; with HLA-A*32:01 (setting [20]), ≥ 56.8 µM.

For NDMISYGGGW, the Kd with HLA-B*44:02 [2] (setting [14]) is 0.00618 µM; in the experiment with HLA-B*44:03 (setting [14]), 0.0712 µM.

On to NEMILMKMK, for which the Kd is 0.4 µM with HLA-B*44:02 [2] (setting [14]) and 2.91 µM in the experiment with HLA-B*44:03 (setting [14]).

In the case of RLNQPVNNI, the Kd with HLA-A*32:01 (setting [17]) came out at 0.025 µM.

For the sequence RSTSLSVSL, the dissociation constant Kd with HLA-A*32:01 (setting [11]) stood at 0.1 µM.

In the case of TLKRRSWPLN, the Kd turned out to be 5.45 µM in the experiment with HLA-A*30:01 (setting [12]) and 19.1 µM with HLA-A*32:01 (setting [12]).

For the sequence VATTFVTPM, the Kd in the experiment with HLA-B*35:01 (setting [11]) was found to be 0.205 µM.

Regarding VEDYGFGVF, the dissociation constant (Kd) with HLA-B*40:01 [1] (setting [11]) amounted to 0.315 µM.

With VEKVETWAL, in the experiment with HLA-B*40:01 [1] (setting [12]), the Kd is 0.0149 µM.

WIEDNPWMED: the Kd with HLA-A*32:01 (setting [12]) came out at 4.16 µM.

For WMVHRQWFFD, in the experiment with HLA-A*32:01 (setting [12]), the Kd was 4.96 µM.
